1 substance from patent US20150114310A1 can be followed below.

Assay [1] deals with Anti-roIFNT antibody. Nature of the assay: competitive RIA, unlabelled IFNT displacing 125I-roIFNT from the antibody; less dilute primary antibody.
In assay [2] the target is Anti-roIFNT antibody. Nature of the assay: competitive RIA, unlabelled IFNT displacing 125I-roIFNT from the antibody; primary antibody at 1:60,000.

For “recombinant ovine IFNT (roIFNT) (ligand)”, the amount of ligand required to displace 50% binding is 1.5 ng with Anti-roIFNT antibody [1] and 0.4 ng in the assay with Anti-roIFNT antibody [2].
